Consider seven molecules from article PMC6277173.

Assay [1] concerns the target human anti HIV-1 monoclonal antibody 2F5 IgG (human). Nature of the assay: BLI; streptavidin bio-assay (Octet QKe): biotinylated 2F5 IgG loaded on streptavidin biosensors, association and dissociation of purified Ab2/3H6 variants; kinetics buffer; KD averaged over different Ab2/3H6 concentrations. On the technique in general: In BLI a coated tip is dipped into the sample, and binding shifts an interference pattern.

Another assay deals with BM07 (su3H6 with T94hR). Nature of the assay: BLI; protein A bio-assay (Octet QKe): Ab2/3H6 variants captured from concentrated culture supernatants on protein A biosensors, blocked with an unspecific scFv-Fc antibody, association and dissociation of 2F5 IgG measured; kinetics buffer; KD averaged.
Assay [2] addresses BM07/vL02 (su3H6 with T94hR, Q49lS). The description is as above.
Assay [3] concerns the target BM09 (su3H6 with T94hR, Y27hA). The assay is described as above.
Assay [4] concerns the target BM07/vL01 (su3H6 with T94hR, F46lL). Described as above.
In assay [5] the target is BM07/vL03 (su3H6 with T94hR, F46lL, Q49lS). The assay is described as above.

In general, Kd refers to the free concentration of one partner at which half of the binding sites on the other are occupied at equilibrium, for simple one-to-one binding. Low values mean higher affinity, high ones lower affinity.

B1: BM07/vL03 (su3H6 with T94hR, F46lL, Q49lS) (antibody, V domains shown)
VH: EVQLVQSGAEVKKPGATVKISCKVSGYTFTDYFMHWVQQAPGKGLEWMGYINCYTGATNYSQKFKGRVTITADTSTDTAYMELSSLRSEDTAVYYCARTSIGYGSSPPFPYWGQGTLVTVS
VL: ETTLTQSPAFMSATPGDKVNISCITSTDIDDDMNWYQQKPGEAAILIISDGNTLRPGIPPRFSGSGYGTDFTLTINNIESEDAAYYFCLQSDNLPYTFGQGTKLEIK
In turn, B1 came in with a Kd in assay [1] of 29 nM.

B2: BM07 (su3H6 with T94hR) (antibody, V domains shown)
VH: EVQLVQSGAEVKKPGATVKISCKVSGYTFTDYFMHWVQQAPGKGLEWMGYINCYTGATNYSQKFKGRVTITADTSTDTAYMELSSLRSEDTAVYYCARTSIGYGSSPPFPYWGQGTLVTVS
VL: ETTLTQSPAFMSATPGDKVNISCITSTDIDDDMNWYQQKPGEAAIFIIQDGNTLRPGIPPRFSGSGYGTDFTLTINNIESEDAAYYFCLQSDNLPYTFGQGTKLEIK
Consider B2, for which, in assay [1], the Kd was 330 nM.

B3: BM07/vL02 (su3H6 with T94hR, Q49lS) (antibody, V domains shown)
VH: EVQLVQSGAEVKKPGATVKISCKVSGYTFTDYFMHWVQQAPGKGLEWMGYINCYTGATNYSQKFKGRVTITADTSTDTAYMELSSLRSEDTAVYYCARTSIGYGSSPPFPYWGQGTLVTVS
VL: ETTLTQSPAFMSATPGDKVNISCITSTDIDDDMNWYQQKPGEAAIFIISDGNTLRPGIPPRFSGSGYGTDFTLTINNIESEDAAYYFCLQSDNLPYTFGQGTKLEIK
With B3, the Kd in assay [1] was determined as 59 nM.

B4: BM07/vL01 (su3H6 with T94hR, F46lL) (antibody, V domains shown)
VH: EVQLVQSGAEVKKPGATVKISCKVSGYTFTDYFMHWVQQAPGKGLEWMGYINCYTGATNYSQKFKGRVTITADTSTDTAYMELSSLRSEDTAVYYCARTSIGYGSSPPFPYWGQGTLVTVS
VL: ETTLTQSPAFMSATPGDKVNISCITSTDIDDDMNWYQQKPGEAAILIIQDGNTLRPGIPPRFSGSGYGTDFTLTINNIESEDAAYYFCLQSDNLPYTFGQGTKLEIK
Turning to B4, in assay [1], the equilibrium dissociation constant (Kd) stood at 28 nM.

B5: BM09 (su3H6 with T94hR, Y27hA) (antibody, V domains shown)
VH: EVQLVQSGAEVKKPGATVKISCKVSGATFTDYFMHWVQQAPGKGLEWMGYINCYTGATNYSQKFKGRVTITADTSTDTAYMELSSLRSEDTAVYYCARTSIGYGSSPPFPYWGQGTLVTVS
VL: ETTLTQSPAFMSATPGDKVNISCITSTDIDDDMNWYQQKPGEAAIFIIQDGNTLRPGIPPRFSGSGYGTDFTLTINNIESEDAAYYFCLQSDNLPYTFGQGTKLEIK
Consider B5, for which the Kd in assay [1] turned out to be 8300 nM.

B6: human anti HIV-1 monoclonal antibody 2F5 IgG (antibody, V domains shown)
VH: RITLKESGPPLVKPTQTLTLTCSFSGFSLSDFGVGVGWIRQPPGKALEWLAIIYSDDDKRYSPSLNTRLTITKDTSKNQVVLVMTRVSPVDTATYFCAHRRGPTTLFGVPIARGPVNAMDVWGQGITVTISS
VL: ALQLTQSPSSLSASVGDRITITCRASQGVTSALAWYRQKPGSPPQLLIYDASSLESGVPSRFSGSGSGTEFTLTISTLRPEDFATYYCQQLHFYPHTFGGGTRVDVR
Consider B6, for which the Kd with BM07 (su3H6 with T94hR) amounted to 170 nM; in assay [2], 95 nM; in assay [3], 39000 nM; in assay [4] it was 22 nM; in assay [5], 21 nM.

B7: mouse antibody Ab2/3H6 (wt3H6) (antibody, V domains shown)
VH: GVQLQQSGPELVKTGASVKISCKASGYSFTDYFMHWVKQSHGKSLDWIGYINCYTGATNYSQKFKGKATFTVDTSSNTAYMQFNSLTSEDSAVYYCARTSIGYGSSPPFPYWGQGTLVTVS
VL: ETTVTQSPASLSMSIGEKVTIRCITSTDIDDDMNWYQQKPGEPPRLLISDGNTLRPGVPSRFSSSGYGTDFVFTIENMLSEDVADYYCLQSDNLPYTFGGGTNLEIK
On to B7, for which, in assay [1], the Kd turned out to be 35 nM.
